Broadly, the IC50 is the concentration that inhibits the measured activity by half. Read a low IC50 as greater potency.

Consider two molecules from US20140161798A1 (Merck Sharp & Dohme, published 2014).

Assay [1] concerns the target bacu-PCSK9-WT (UniProt Q8NBP7). Nature of the assay: cell-based or functional assay.
The target in assay [2] is Purified PCSK9 carrying a C-terminal FLAG tag (UniProt Q8NBP7). The assay can be described thus: AlphaScreen PCSK9-FLAG/His-LDLR; log[antibody] ug/ml -1.9909. (In Alpha technology, singlet oxygen from a donor bead excites a nearby acceptor bead.)
Assay [3] has the same target. Described as above. The source holds these as a separate data set.
The target is the same in assay [4]. Nature of the assay: AlphaScreen PCSK9-FLAG/His-LDLR; log[antibody] ug/ml -0.08241.
The target is the same in assay [5]. Nature of the assay: AlphaScreen PCSK9-FLAG/His-LDLR; log[antibody] ug/ml -0.55953.
Assay [6] shares this target. The assay can be described thus: AlphaScreen PCSK9-FLAG/His-LDLR; log[antibody] ug/ml -1.03665.
Assay [7] has the same target. The assay can be described thus: AlphaScreen PCSK9-FLAG/His-LDLR; log[antibody] ug/ml -1.51377.
For assay [8] the target is unchanged. The assay can be described thus: AlphaScreen PCSK9-FLAG/His-LDLR; log[antibody] ug/ml -2.46802.
Assay [9] has the same target. Nature of the assay: AlphaScreen PCSK9-FLAG/His-LDLR; log[antibody] ug/ml 0.394711.
Assay [10] shares this target. The assay can be described thus: AlphaScreen PCSK9-FLAG/His-LDLR; log[antibody] ug/ml 0.871832.
Assay [11] shares this target. The assay can be described thus: AlphaScreen PCSK9-FLAG/His-LDLR; log[antibody] ug/ml 1.348954.
For assay [12] the target is unchanged. Nature of the assay: AlphaScreen PCSK9-FLAG/His-LDLR; log[antibody] ug/ml 1.826075.
For assay [13] the target is unchanged. The assay can be described thus: AlphaScreen PCSK9-FLAG/His-LDLR; log[antibody] ug/ml -0.08241. This is another data set of the same source.
Assay [14] shares this target. The assay can be described thus: AlphaScreen PCSK9-FLAG/His-LDLR; log[antibody] ug/ml -0.55953. The source holds these as a separate data set.
Assay [15] shares this target. The assay can be described thus: AlphaScreen PCSK9-FLAG/His-LDLR; log[antibody] ug/ml -1.03665. The source holds these as a separate data set.
Assay [16] shares this target. Nature of the assay: AlphaScreen PCSK9-FLAG/His-LDLR; log[antibody] ug/ml -1.51377. The source holds these as a separate data set.
Assay [17] shares this target. The assay can be described thus: AlphaScreen PCSK9-FLAG/His-LDLR; log[antibody] ug/ml -2.46802. The source holds these as a separate data set.
Assay [18] has the same target. Nature of the assay: AlphaScreen PCSK9-FLAG/His-LDLR; log[antibody] ug/ml -2.94514.
Assay [19] shares this target. Nature of the assay: AlphaScreen PCSK9-FLAG/His-LDLR; log[antibody] ug/ml 0.394711. This is another data set of the same source.
Assay [20] has the same target. The assay can be described thus: AlphaScreen PCSK9-FLAG/His-LDLR; log[antibody] ug/ml 0.871832. The source holds these as a separate data set.
Assay [21] shares this target. The assay can be described thus: AlphaScreen PCSK9-FLAG/His-LDLR; log[antibody] ug/ml 1.348954. This is another data set of the same source.
For assay [22] the target is unchanged. Nature of the assay: AlphaScreen PCSK9-FLAG/His-LDLR; log[antibody] ug/ml 1.826075. The source holds these as a separate data set.
Assay [23] deals with T1, Purified PCSK9 carrying a C-terminal FLAG tag (UniProt Q8NBP7 31-692).
T1 construct: also called PCSK9-FLAG; PCSK9-Flag; not shown: C-terminal FLAG tag
Nature of the assay: AlphaScreen, inhibition of PCSK9-Flag/His-tagged LDL receptor interaction; average of two measurements. The protocol:
This technique required that “donor” and “acceptor” beads be brought into proximity via protein—protein interaction, resulting in increased luminescence (Ullman et al., Proc. Nat. Acad. Sci. (1994) 91:5426-5430). […] About 2.5 μl of biotinylated anti-Flag-M2 antibody (1.8 μg/ml) was added and the mixture incubated for 1 hour. Afterward 5 μl of streptavidin donor bead and nickel chelate acceptor bead (1:1 mixture) was added and the assay incubated overnight. AlphaScreen signal (counts per second) was analyzed using an EnVision microplate reader (Perkin-Elmer). All data points were determined in triplicate. Assays were carried out at 23° C. in buffer containing 25 mM HEPES, 0.1 M NaCl, pH 7.4, 0.1% BSA. The inhibition assays were determined similarly with slight adjustments to assay volumes and protein concentrations.

Chain of bacu-PCSK9-WT (Q8NBP7 31-692 limits assumed): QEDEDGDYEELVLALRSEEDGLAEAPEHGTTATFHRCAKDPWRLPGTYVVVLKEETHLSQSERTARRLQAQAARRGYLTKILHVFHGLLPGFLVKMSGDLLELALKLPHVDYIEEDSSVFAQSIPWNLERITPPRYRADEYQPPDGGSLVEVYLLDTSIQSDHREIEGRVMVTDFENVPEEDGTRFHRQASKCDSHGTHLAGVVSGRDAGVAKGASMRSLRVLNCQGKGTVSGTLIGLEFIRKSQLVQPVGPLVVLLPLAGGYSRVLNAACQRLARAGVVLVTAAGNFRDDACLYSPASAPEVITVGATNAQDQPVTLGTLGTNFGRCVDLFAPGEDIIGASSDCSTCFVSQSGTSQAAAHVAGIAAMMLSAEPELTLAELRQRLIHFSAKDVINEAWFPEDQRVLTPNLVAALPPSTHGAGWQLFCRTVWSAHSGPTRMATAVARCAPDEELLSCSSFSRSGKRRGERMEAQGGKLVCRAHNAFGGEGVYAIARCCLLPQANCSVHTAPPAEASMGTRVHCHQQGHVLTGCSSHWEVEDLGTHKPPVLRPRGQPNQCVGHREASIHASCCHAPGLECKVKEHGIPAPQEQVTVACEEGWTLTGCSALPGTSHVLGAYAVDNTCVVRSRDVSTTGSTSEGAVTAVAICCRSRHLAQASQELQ
Chain of Purified PCSK9 carrying a C-terminal FLAG tag (UniProt Q8NBP7) (Q8NBP7 31-692 limits assumed): as above
T1 sequence (Q8NBP7 31-692 limits assumed): as above

Turning to “Rabbit anti-murine-PCSK9 polyclonal antibody, Cayman Chemical Cat.#10008811 (anti-PCSK9-catalytic domain antibody)”, in [1], the DiI-LDL uptake by HepG2 cells, 6 hour incubation, [PCSK9] 1.67 ug/ml, antibody 100 ug/ml (fluorescence intensity) stood at 2.95e+07. This molecule came in with a DiI-LDL uptake by HepG2 cells, 6 hour incubation, [PCSK9] 5 ug/ml, antibody 100 ug/ml (fluorescence intensity) in assay [1] of 2.56e+07. This molecule came in with a DiI-LDL uptake by HepG2 cells, 6 hour incubation, [PCSK9] 15 ug/ml, antibody 100 ug/ml (fluorescence intensity) in [1] of 2.24e+07. The DiI-LDL uptake by HepG2 cells, 18 hour incubation, [PCSK9] 1.67 ug/ml, antibody 100 ug/ml (fluorescence intensity) in [1] stood at 3.2e+07. In assay [1], this molecule displayed a DiI-LDL uptake by HepG2 cells, 18 hour incubation, [PCSK9] 5 ug/ml, antibody 100 ug/ml (fluorescence intensity) of 2.59e+07. In addition, in [1], the DiI-LDL uptake by HepG2 cells, 18 hour incubation, [PCSK9] 15 ug/ml, antibody 100 ug/ml (fluorescence intensity) came to 2.18e+07. Further, the AlphaScreen mean counts in assay [2] is 130000 counts; in [3] it was 81500 counts; in assay [4], 94800 counts; in assay [5] it was 128000 counts; in assay [6], 124000 counts; in assay [7], 126000 counts. Also, the AlphaScreen mean counts in assay [8] is 132000 counts; in assay [9], 93500 counts; in [10] it was 55600 counts; in [11], 25800 counts; in [12], 6840 counts; in assay [13] it was 70000 counts. Further, the AlphaScreen mean counts in assay [14] was found to be 77400 counts; in assay [15], 79800 counts; in [16] it was 85600 counts; in assay [17], 80600 counts; in [18], 85400 counts; in assay [19], 60100 counts. The AlphaScreen mean counts in assay [20] stood at 33300 counts; in assay [21], 12300 counts; in [22], 2100 counts.

B1: 1F11/1G11 anti-PCSK9 antibody (IgG2a) (antibody, V domains shown)
VH: EVQLQQSGPELVKPGASVKISCKVSGYTFTDYYMNWVKQSHGKSLEWIGDINPNNGGAIYNQKFKGKATLTVDKSSSIAYMELRSLTSEDSAVYYCTSGIITEIAEDFWGQGTTLTVSS
VL: DIVMTQSQKFMSTSVGDRVSVTCKASQNVGTNVVWYQQKPGQSPKALIHSASYRYSGVPDRFKGSGSGTDFTLTITNVQSEDLAGFFCQQYKTYPYTFGGGTQLEIKR
notes: also called anti-human PCSK9 Antibody, 1F11/1G11
In [23], B1 returned an IC50 of 0.049 nM.
